Sequences and labels used below:
T1: VPAC1 receptor
T1 sequence (P32241 whole entry, species assumed, looked up): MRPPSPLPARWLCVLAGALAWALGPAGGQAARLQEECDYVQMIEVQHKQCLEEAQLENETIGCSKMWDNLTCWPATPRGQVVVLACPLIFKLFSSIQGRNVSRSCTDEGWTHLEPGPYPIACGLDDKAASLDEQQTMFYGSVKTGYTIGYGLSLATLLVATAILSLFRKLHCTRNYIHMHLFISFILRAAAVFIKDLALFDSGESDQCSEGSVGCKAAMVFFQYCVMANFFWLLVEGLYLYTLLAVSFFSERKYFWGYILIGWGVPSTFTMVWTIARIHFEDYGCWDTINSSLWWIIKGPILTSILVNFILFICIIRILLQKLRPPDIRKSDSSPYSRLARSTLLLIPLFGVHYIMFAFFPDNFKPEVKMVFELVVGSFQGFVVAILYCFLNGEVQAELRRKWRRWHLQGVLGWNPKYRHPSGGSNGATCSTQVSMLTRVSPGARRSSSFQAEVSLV

B1: P412 (P12+43 kD PEG) (peptide)
peptide: HSDAVFTDQYTRLRKQVAAKKYLQSIKQKRYC
modifications: branched 43 kD PEG attached to the C-terminal cysteine via maleimide (thioether) linkage
B2: P212 (P12+22 kD PEG) (peptide)
peptide: B1 peptide
modifications: linear 22 kD PEG attached to the C-terminal cysteine via maleimide (thioether) linkage
B3: P12 (peptide)
peptide: B1 peptide
modifications: ends and bridges not checked
B4: P5 (peptide)
peptide: HSDAVFTDQYTRLRKQVAAKKYLQSIKQKRY
modifications: ends and bridges not checked

Ends that are not written are not given here. Where only a bound is given, the exact number is not on record here.

This experiment has as its target T1, VPAC1 receptor. As to the kind of experiment: cell-based or functional assay.
Take B1: the “EC50 (nM), cAMP assay, VPAC1 agonist activity” value (“EC50 (nM), cAMP assay” below) was over 1000 nM.

Turning to B2, the “EC50 (nM), cAMP assay” value was over 1000 nM.

With B3, the “EC50 (nM), cAMP assay” value was over 1000 nM.

In the case of B4, the “EC50 (nM), cAMP assay” value was 232 nM.

For the origin of these results see patent publication US20080261863A1 (Bayer, published 2008).
